# Residue numbers refer to the chain shown, from its start.
# T1: ecMutS (Escherichia coli, UniProt P23909 1-853)
# T1 sequence: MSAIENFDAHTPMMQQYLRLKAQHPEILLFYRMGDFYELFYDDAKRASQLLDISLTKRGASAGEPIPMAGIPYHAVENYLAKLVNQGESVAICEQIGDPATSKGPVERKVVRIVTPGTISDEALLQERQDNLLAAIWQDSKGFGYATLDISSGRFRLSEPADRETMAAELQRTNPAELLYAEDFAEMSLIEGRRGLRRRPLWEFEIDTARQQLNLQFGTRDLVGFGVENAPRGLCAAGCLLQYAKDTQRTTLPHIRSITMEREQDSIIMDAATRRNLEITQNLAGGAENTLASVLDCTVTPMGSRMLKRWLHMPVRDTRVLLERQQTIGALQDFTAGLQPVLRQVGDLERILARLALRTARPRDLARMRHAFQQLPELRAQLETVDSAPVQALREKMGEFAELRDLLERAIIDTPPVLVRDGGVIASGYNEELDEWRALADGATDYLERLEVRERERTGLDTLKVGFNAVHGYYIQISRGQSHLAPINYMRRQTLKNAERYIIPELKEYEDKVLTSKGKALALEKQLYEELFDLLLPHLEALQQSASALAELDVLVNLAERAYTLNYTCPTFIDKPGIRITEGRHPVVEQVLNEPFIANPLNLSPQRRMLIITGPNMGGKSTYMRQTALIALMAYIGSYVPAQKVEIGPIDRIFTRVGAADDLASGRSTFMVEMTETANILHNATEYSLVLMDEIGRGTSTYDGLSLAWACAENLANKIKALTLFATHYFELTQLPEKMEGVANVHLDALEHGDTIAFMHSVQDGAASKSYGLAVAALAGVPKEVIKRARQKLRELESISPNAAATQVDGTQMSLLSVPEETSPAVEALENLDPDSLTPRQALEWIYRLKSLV
# T2: rsMutS (Rhodobacter sphaeroides strain 2.4.1, UniProt Q3IYI5 1-875)
# T2 sequence: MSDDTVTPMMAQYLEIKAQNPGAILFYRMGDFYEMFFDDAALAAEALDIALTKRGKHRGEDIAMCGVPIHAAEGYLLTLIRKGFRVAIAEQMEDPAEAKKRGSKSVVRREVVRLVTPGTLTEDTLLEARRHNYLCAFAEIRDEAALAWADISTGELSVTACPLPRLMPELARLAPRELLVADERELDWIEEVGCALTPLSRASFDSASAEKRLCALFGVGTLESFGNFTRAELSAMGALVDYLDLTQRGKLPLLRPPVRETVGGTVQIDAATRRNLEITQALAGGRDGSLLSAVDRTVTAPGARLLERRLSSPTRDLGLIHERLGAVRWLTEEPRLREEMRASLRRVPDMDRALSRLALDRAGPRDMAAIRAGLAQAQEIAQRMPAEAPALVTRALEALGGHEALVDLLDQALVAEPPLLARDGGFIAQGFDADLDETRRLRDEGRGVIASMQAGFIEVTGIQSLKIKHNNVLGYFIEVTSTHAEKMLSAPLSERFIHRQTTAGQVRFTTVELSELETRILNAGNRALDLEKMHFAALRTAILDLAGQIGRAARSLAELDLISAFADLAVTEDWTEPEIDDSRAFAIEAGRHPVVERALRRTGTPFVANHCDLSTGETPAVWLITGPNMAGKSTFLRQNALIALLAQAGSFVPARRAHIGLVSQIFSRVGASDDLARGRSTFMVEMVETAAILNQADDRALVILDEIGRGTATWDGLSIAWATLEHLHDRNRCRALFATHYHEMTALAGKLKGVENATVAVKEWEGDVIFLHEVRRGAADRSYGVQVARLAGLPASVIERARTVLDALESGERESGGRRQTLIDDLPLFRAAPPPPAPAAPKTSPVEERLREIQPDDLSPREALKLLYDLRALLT
# B1: 76/95G4-A/T (mixed)
# DNA 1: TCCTTTCGCGCTTGGATCCTATGAGCGTTACTCGAGCATATGGCTCAGCTGCCAAGCACCAGTGTCAGCGTCCTAT
# DNA 2: ATAGGACGCTGACACTGGTGCTTGGCAGCTGAGCCATATTTGGGTGGGTGGGTGGGTTGCTCGAGTAACGCTCATAGGATCCAAGCGCGAAAGGA
# modifications: N6-methyl-dA at position 16 of strand 1 (Gm6ATC)
# B2: 76/76-G/T (dsDNA)
# DNA 1: B1 DNA 1 with A55G
# DNA 2: ATAGGACGCTGACACTGGTGCTTGGCAGCTGAGCCATATGCTCGAGTAACGCTCATAGGATCCAAGCGCGAAAGGA
# modifications: N6-methyl-dA at position 16 of strand 1 (Gm6ATC)
# B3: 76/95(GT)8-A/T (mixed)
# DNA 1: B1 DNA 1
# DNA 2: B1 DNA 2 with G43T, G47T, G51T, G55T
# modifications: N6-methyl-dA at position 16 of strand 1 (Gm6ATC)
# B4: 76/76-A/T (dsDNA)
# DNA 1: B1 DNA 1
# DNA 2: B2 DNA 2
# modifications: N6-methyl-dA at position 16 of strand 1 (Gm6ATC)
# Experiments:
# [1] = biological target: T3, ecMutL (Escherichia coli, UniProt P23367 1-615); assay: EMSA; no nucleotide, on ice, 100 nM DNA; MutS EMSA: 5 nM DNA, 20 mM HEPES-KOH pH 7.9, 5 mM MgCl2, 120 mM KCl, 0.5 mg/mL BSA, 1 mM nucleotide, 37 C 15 min; MutL EMSA: 100 nM DNA, 20 mM HEPES pH 8.0 (10); settings: protein: recombinant; chain copies: 2; label: 3'-TAMRA on strand 2 (95G4); blunt; 19-nt insert in strand 2 folded as intramolecular parallel G4 within duplex
# [2] = biological target: T1, ecMutS; assay: EMSA; 1 mM ATPgS, 5 mM MgCl2; MutS EMSA: 5 nM DNA, 20 mM HEPES-KOH pH 7.9, 5 mM MgCl2, 120 mM KCl, 0.5 mg/mL BSA, 1 mM nucleotide, 37 C 15 min; MutL EMSA: 100 nM DNA, 20 mM HEPES pH 8.0 (10); settings: protein: recombinant; chain copies: 2; label: 3'-TAMRA on strand 2 (95G4); blunt; 19-nt insert in strand 2 folded as intramolecular parallel G4 within duplex
# [3] = biological target: T2, rsMutS; assay: as above; settings: protein: recombinant; tags: N-terminal His6 (pET15b); chain copies: 2; label: 3'-TAMRA on strand 2 (95G4); blunt; 19-nt insert in strand 2 folded as intramolecular parallel G4 within duplex
# [4] = biological target: T1, ecMutS; assay: EMSA; 1 mM ADP, 5 mM MgCl2; MutS EMSA: 5 nM DNA, 20 mM HEPES-KOH pH 7.9, 5 mM MgCl2, 120 mM KCl, 0.5 mg/mL BSA, 1 mM nucleotide, 37 C 15 min; MutL EMSA: 100 nM DNA, 20 mM HEPES pH 8.0 (10); settings: protein: recombinant, chain copies: 2, blunt
# [5] = biological target: T2, rsMutS; assay: as above; settings: protein: recombinant, tags: N-terminal His6 (pET15b), chain copies: 2, blunt
# [6] = biological target: T1, ecMutS; assay: EMSA; 1 mM ATP, 5 mM MgCl2; MutS EMSA: 5 nM DNA, 20 mM HEPES-KOH pH 7.9, 5 mM MgCl2, 120 mM KCl, 0.5 mg/mL BSA, 1 mM nucleotide, 37 C 15 min; MutL EMSA: 100 nM DNA, 20 mM HEPES pH 8.0 (10); settings: protein: recombinant, chain copies: 2, blunt
# [7] = biological target: T2, rsMutS; assay: as above; settings: protein: recombinant, tags: N-terminal His6 (pET15b), chain copies: 2, blunt
# [8] = biological target: T3, ecMutL; assay: EMSA; no nucleotide, on ice, 100 nM DNA; MutS EMSA: 5 nM DNA, 20 mM HEPES-KOH pH 7.9, 5 mM MgCl2, 120 mM KCl, 0.5 mg/mL BSA, 1 mM nucleotide, 37 C 15 min; MutL EMSA: 100 nM DNA, 20 mM HEPES pH 8.0 (10); settings: protein: recombinant, chain copies: 2, blunt
# [9] = label: 3'-TAMRA on strand 2 (95G4), 19-nt insert in strand 2 folded as intramolecular parallel G4 within duplex
# [10] = label: 3'-TAMRA on strand 2 (76T), single G/T mismatch
# [11] = label: 3'-TAMRA on strand 2 (95(GT)8), 19-nt unstructured (GT)8 loop in strand 2
# [12] = label: 3'-TAMRA on strand 2 (76T), perfect duplex
# T3 sequence (P23367 whole entry): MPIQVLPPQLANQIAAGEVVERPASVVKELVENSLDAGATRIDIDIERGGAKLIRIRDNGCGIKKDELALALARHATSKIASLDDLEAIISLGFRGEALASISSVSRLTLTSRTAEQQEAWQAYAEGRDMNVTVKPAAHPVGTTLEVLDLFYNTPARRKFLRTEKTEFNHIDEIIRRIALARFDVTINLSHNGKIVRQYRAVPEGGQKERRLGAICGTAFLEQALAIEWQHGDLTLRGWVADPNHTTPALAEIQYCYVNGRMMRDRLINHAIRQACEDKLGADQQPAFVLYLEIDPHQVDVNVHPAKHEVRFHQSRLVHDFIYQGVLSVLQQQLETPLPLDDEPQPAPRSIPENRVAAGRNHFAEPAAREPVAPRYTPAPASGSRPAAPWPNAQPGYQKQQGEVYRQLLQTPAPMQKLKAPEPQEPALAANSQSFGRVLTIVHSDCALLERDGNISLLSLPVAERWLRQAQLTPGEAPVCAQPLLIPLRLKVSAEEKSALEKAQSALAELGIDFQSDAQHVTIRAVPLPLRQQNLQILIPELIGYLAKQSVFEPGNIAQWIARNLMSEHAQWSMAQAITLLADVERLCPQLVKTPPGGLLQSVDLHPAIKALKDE
binder,measurement,setting,value
B1,Kd,[1],~200 nM
same,Kd,[2],31 ± 4 nM
same,Kd,[3],46 ± 5 nM
same,Kd,[4]; [9],23 ± 5 nM
same,Kd,[5]; [9],23 ± 3 nM
same,Kd,[6]; [9],32 ± 4 nM
same,Kd,[7]; [9],23 ± 3 nM
B2,binding signal,[8]; [10],> 3.7 fold lower binding extent than 76/95G4-A/T at 0.1 uM ecMutL (at least)
same,Kd,[4]; [10],35 ± 3 nM
same,Kd,[5]; [10],27 ± 4 nM
same,Kd,[6]; [10],38 ± 4 nM
same,Kd,[7]; [10],60 ± 10 nM
B3,binding signal,[8]; [11],1.9 fold lower binding extent than 76/95G4-A/T at 0.1 uM ecMutL
same,Kd,[4]; [11],32 ± 3 nM
same,Kd,[5]; [11],31 ± 3 nM
same,Kd,[6]; [11],44 ± 6 nM
same,Kd,[7]; [11],43 ± 5 nM
B4,binding signal,[8]; [12],> 3.7 fold lower binding extent than 76/95G4-A/T at 0.1 uM ecMutL (at least)
same,Kd,[4]; [12],38 ± 4 nM
same,Kd,[5]; [12],51 ± 4 nM
same,Kd,[6]; [12],50 ± 10 nM
same,Kd,[7]; [12],80 ± 30 nM

# From article PMC7699706, “Responses of DNA Mismatch Repair Proteins to a Stable G-Quadruplex Embedded into a DNA Duplex Structure”
